This is an account of results in publication PMC4989314, “Regulatory (pan-)genome of an obligate intracellular pathogen in the PVC superphylum”.

To fix the notation:
T1: His6-Euo (Waddlia chondrophila) (UniProt D6YSI2)
T1 sequence: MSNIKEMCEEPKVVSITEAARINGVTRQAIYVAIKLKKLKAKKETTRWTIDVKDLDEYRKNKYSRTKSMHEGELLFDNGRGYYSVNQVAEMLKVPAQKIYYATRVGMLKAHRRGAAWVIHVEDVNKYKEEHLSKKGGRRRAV

T2: His6-HrcA (Waddlia chondrophila) (UniProt D6YSD6)
T2 sequence: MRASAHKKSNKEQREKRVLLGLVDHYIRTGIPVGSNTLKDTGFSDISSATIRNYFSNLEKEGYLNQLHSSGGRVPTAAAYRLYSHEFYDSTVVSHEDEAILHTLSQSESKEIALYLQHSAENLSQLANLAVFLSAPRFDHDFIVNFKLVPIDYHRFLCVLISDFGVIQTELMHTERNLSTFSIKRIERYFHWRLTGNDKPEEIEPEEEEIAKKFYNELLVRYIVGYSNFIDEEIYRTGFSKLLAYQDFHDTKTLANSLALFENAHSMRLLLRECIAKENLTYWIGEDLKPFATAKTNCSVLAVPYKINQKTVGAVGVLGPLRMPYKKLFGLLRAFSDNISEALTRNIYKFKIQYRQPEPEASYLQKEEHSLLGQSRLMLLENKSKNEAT

T3: His6-Euo (Waddlia chondrophila, UniProt D6YSI2 1-142)
T3 sequence: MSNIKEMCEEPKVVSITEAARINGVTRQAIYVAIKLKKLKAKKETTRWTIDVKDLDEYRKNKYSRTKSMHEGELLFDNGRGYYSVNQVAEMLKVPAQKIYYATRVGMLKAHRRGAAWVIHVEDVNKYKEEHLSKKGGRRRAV

B1: PftsY_mut 1+2 (dsDNA)
DNA 1: TTTGTCGACTTATCTTACACAACTGAGACTTCCAATGGTACTACCCTTCTTCCCATCTAGTTTTGAAAAAGTTAAAAATGCCCTCTCCAAAACGCGTTCCGCTCTGGGAGAAAAATTGCGTTCTCTTTTCAGTGGAAAAATCGATGAAGAAACACTGGACTGCAGTTT
DNA 2: AAACTGCAGTCCAGTGTTTCTTCATCGATTTTTCCACTGAAAAGAGAACGCAATTTTTCTCCCAGAGCGGAACGCGTTTTGGAGAGGGCATTTTTAACTTTTTCAAAACTAGATGGGAAGAAGGGTAGTACCATTGGAAGTCTCAGTTGTGTAAGATAAGTCGACAAA
B2: PqueF_mut 1+2+3+4 (dsDNA)
DNA 1: AAACTGCAGGGCCAATCTTTCATTGATTGTCCATTCATGGTCGGCAAGGGTTGAGAGAAGGGCTTTATTTTAGGGTTCGTTCTTTGATAGGGTTGCAGGCATGGTGCAAGTGCAGGATTCAGTTTTAGGAAAAAAGACGTTTTATAAGGATCGGTACGAGTCGACAAA
DNA 2: TTTGTCGACTCGTACCGATCCTTATAAAACGTCTTTTTTCCTAAAACTGAATCCTGCACTTGCACCATGCCTGCAACCCTATCAAAGAACGAACCCTAAAATAAAGCCCTTCTCTCAACCCTTGCCGACCATGAATGGACAATCAATGAAAGATTGGCCCTGCAGTTT

In the first data set the target is T1, His6-Euo (Waddlia chondrophila). Kind of data set: EMSA. As to conditions: EMSA with Cy5 PCR probes or 80 ng unlabelled DNA (GelRed); buffer, salt, pH and temperature not in material. (In general: In EMSA bound probe runs differently from free probe, usually more slowly.)
In the case of “TTCGCGGGCAGCGTTGATCCCGCCAAAACCGCCTCCAATAATAATGACTTTAGGTTTGCTCATATCTTGTTTATATAATTAAAAATGATTTTAAAAATCCAGATTAAAATTGTTCGACGAGTTGATGGATTTCTGAAAAGGAAAGGGGGT (double strand) [Pndh]”, the binding entry was “binds”.

For the molecule “TCCAGTGTTTCTTCATCGATTTTTCCACTGAAAAGAGAACGCAATTTTTCTCCCAGAGCGGAACGCGTTTTGGAGAGGGCATTTTTAACTTTTTCAAAACTAGATTTTAAGAATTTTAGTACCATTGGAAGTCTCAGTTGTGTAAGATAA (double strand) [PftsY (frag0)]”, the binding entry is given as “binds”.

For “CACCGGAAGATGTGGTGCTGATTGCGGGCAGAGGGCATGAACCTTATCAAATATTTGCGCATCAAACAATAGAATTTAAAGATCGCGAAGTTGTAGAGGATATATTACATTCATGAGGAGAAGCAATCGCAGGGAATTCTTAAAAAATAG (double strand) [PamiA]”, the binding result is recorded as “binds”.

In the case of “TTGTCATGAAAAACTCTATGAATCAAATAAGGAGGGGCATTTACATGGCGCTCAGTAAAACTATCAACGAAATGAGGAGCCTTTTTACAGGTCTAATCGATGACCTTCAAAAGGCTGAAGCAGGTAACAAAGCTGCCTCTCAGCGTGTAA (double strand) [PhctA]”, the binding result is recorded as “no binding”.

For the molecule “TCGTACCGATCCTTATAAAACGTCTTTTTTCCTAAAACTGAATCCTGCACTTGCACCATGCCTGCAATTTTATCAAAGAACGAATTTTAAAATAAAGAAATTCTCTCAAAAATTGCCGACCATGAATGGACAATCAATGAAAGATTGGCC (double strand) [PqueF (frag0)]”, the binding entry is reported as “binds”.

Consider “TGTAATGCCATGGGATCGCGTTTAAGCGAGATCATATAGTAGCTCCTAAAAAAATATTCCTTGCAAGACAAACAAATTTTTTCGTGTAAAGTTTGCATTTTCAAAATCGGACCAGATGAAAATGCGCAAACTCTCTTTTTTACTCCTCC (double strand) [Prhs9]”, for which the binding result is given as “binds”.

The target of the next data set is T2, His6-HrcA (Waddlia chondrophila). Kind of data set: EMSA. The following applies: EMSA with Cy5 PCR probes or 80 ng unlabelled DNA (GelRed); buffer, salt, pH and temperature not in material.
Turning to “GCTGCTCAATTGGTCTATAAAAAAGGACTTGACTGGCGCCCTTCTATTGTCGACATTTTACCCGTCATTCTGGAAAAACAAATCTAGCAAATAGCTTTGTTGAGTGCTAATTCCTTCTTGACCTCTTTTAAACCCCTTGTTATAATGAAA (double strand) [PhrcA (HrcA EMSA)]”, the binding result is recorded as “binds”.

As for “ATTTATAAAGAAACTTCTCTTGGAGGGCTTGCAGTAAACGTGCCTGAATGCTAAAAGATTTGGTATATGGAGCTAATAAAGGATCAAATGCAAAGATACGAAGAACGGGAACTCGTCGAATTCGAAAATCAAGGGATAAAAATTTTTGGA (double strand) [Pwcw_1080]”, the binding result is recorded as “binds”.

For “CTAGCTAGCTAAACATCTGCTTAAGTGATAACACCTCTAATGCTATCAATATCCTTCGATATTTTGCAATAGAAAATTAGCACTTTGGCAATTAAAGTGCTAATAACTTATCCAGCTCCTCGACAAGATTGCTGAATTTTTTGATGGCAG (double strand) [PgroES1]”, the binding result was “binds”.

Turning to “CATAACTTTTTGGGAATTTCAAGATCGACTCGGGATCGTGCAGTAAAACATTAGTATCTAATACAAAGGTCTTTTTCTTCACATACGCTCCTTTTTAATAGCACTTATAGCTTGAGAGTGCTAAATCAATTGACTTAAATAGGTTTATTT (double strand) [PphoH]”, the binding result was “binds”.

With “CCTATATCGTATGGCGGCTAAAAGAGCTTGACCGGGCGAAAAGGGAGCAATTTAAGCAAAAGCGGGAACGGTATTTATTGTACCGCTAAAAACTGGCACTTAAATTCATCAACTGCTAATATGTTGACGTAAATCCATTGAACTCTTAAA (double strand) [PgroES3]”, the binding entry is given as “binds”.

A further data set addresses T3, His6-Euo. Kind of data set: EMSA; EMSA with Cy5 PCR probes or 80 ng unlabelled DNA (GelRed); buffer, salt, pH and temperature not in material. As to conditions: protein: recombinant; tags: His6; chain copies: 2; label: Cy5; blunt.
Regarding B1, the binding result is listed as “no binding”.

On to B2, for which the binding result was “no binding”.
